According to patent publication US20230192896A1 (BIOVERATIV THERAPEUTICS, published 2023):

Columns and labels:
FIXa-SM (FIXa+EGR-CMK) = molecular target: T1, FIXa-SM (FIXa+EGR-CMK) (human, UniProt P00740 47-191; P00740 227-461, EGR-CMK (L-Glu-Gly-Arg chloromethyl ketone) covalently bound to the active site); assay: BLI; class meaning: paragraph 914
T1 construct: BLI antigen bought from Haematologic Technologies (HCIXA-EGR); also called FIXa with substrate mimic

[1] = molecular target: T2, free FIXa (activated Factor IX) (human, UniProt P00740 47-191; P00740 227-461); assay: BLI; class meaning: paragraph 914
T2 construct: BLI antigen bought from Haematologic Technologies (HCIXA-0050); also called factor IXa

[2] = molecular target: T2, free FIXa (activated Factor IX); assay: yeast display selection and BLI as in Examples 1 and 5

binding result (FIXa-SM (FIXa+EGR-CMK))	binding result [1]	binding result [2]	Binder
binds	binds	–	BIIB-9-1282 (antibody, V domains shown, IgG) VH: QVQLVQSGAEVKKPGASVKVSCKASGYTFTSYYMVWVRQAPGQGLEWMGIINPSGGSTSYAQKFQGRVTMTRDTSTSTVYMELSSLRSEDTAVYYCARVPTYRYSYLAFDIWGQGTMVTVSS VL: EIVMTQSPATLSVSPGERATLSCRASQSVSSNLAWYQQKPGQAPRLLIYGASTRATGIPARFSGSGSGTEFTLTISSLQSEDFAVYYCQQHNHLPITFGGGTKVEIK
binds	binds	–	BIIB-9-1283 (antibody, V domains shown, IgG) VH: QVQLVQSGAEVKKPGASVKVSCKASGYTFTSYYMVWVRQAPGQGLEWMGIINPSGGSTSYAQKFQGRVTMTRDTSTSTVYMELSSLRSEDTAVYYCARVPTYRYSYLAFDIWGQGTMVTVSS VL: DIQMTQSPSSVSASVGDRVTITCRASQGISSWLAWYQQKPGKAPKLLIYAASSLQSGVPSRFSGSGSGTDFTLTISSLQPEDFATYYCQQASSFPPTFGGGTKVEIK
binds	binds	–	BIIB-9-1279 (antibody, V domains shown, IgG) VH: QVQLVQSGAEVKKPGASVKVSCKASGYTFTSYYMHWVRQAPGQGLEWMGIINPSGGSTSYAQKFQGRVTMTRDTSTSTVYMELSSLRSEDTAVYYCARGPTDSSGYLDMDVWGKGTTVTVSS VL: DIQMTQSPSSVSASVGDRVTITCRASQGISSWLAWYQQKPGKAPKLLIYAASSLQSGVPSRFSGSGSGTDFTLTISSLQPEDFATYYCQQASSFPPTFGGGTKVEIK
binds	binds	–	BIIB-9-1284 (antibody, V domains shown, IgG) VH: QVQLVQSGAEVKKPGASVKVSCKASGYTFTSYYMVWVRQAPGQGLEWMGIINPSGGSTSYAQKFQGRVTMTRDTSTSTVYMELSSLRSEDTAVYYCARVPTYRYSYLAFDIWGQGTMVTVSS VL: EIVLTQSPATLSVSPGERATLSCRASQSVGSNLAWYQQKPGQAPRLLIYGASTRATGIPARFSGSGSGTEFTLTISSLQSEDFAVYYCQQHNHLPITFGGGTKVEIK
binds	binds	–	BIIB-9-1278 (antibody, V domains shown, IgG) VH: QVQLVQSGAEVKKPGASVKVSCKASGYTFTSYYMVWVRQAPGQGLEWMGIINPSGGSTSYAQKFQGRVTMTRDTSTSTVYMELSSLRSEDTAVYYCARGPGELGYYLAFDIWGQGTMVTVSS VL: EIVMTQSPATLSVSPGERATLSCRASQSVSSNLAWYQQKPGQAPRLLIYGASTRATGIPARFSGSGSGTEFTLTISSLQSEDFAVYYCQQHANFPPTFGGGTKVEIK
binds	binds	–	BIIB-9-1285 (antibody, V domains shown, IgG) VH: QVQLVQSGAEVKKPGASVKVSCKASGYTFTSYYMVWVRQAPGQGLEWMGIINPSGGSTSYAQKFQGRVTMTRDTSTSTVYMELSSLRSEDTAVYYCARVPTYRYSYLAFDIWGQGTMVTVSS VL: EIVMTQSPATLSVSPGERATLSCRASQSVSSNLAWYQQKPGQAPRLLIYGASTRATGIPARFSGSGSGTEFTLTISSLQSEDFAVYYCQQASNFPPTFGGGTKVEIK
binds	binds	–	BIIB-9-1277 (antibody, V domains shown, IgG) VH: QVQLVQSGAEVKKPGASVKVSCKASGYTFTSYYMHWVRQAPGQGLEWMGIINPSGGSTSYAQKFQGRVTMTRDTSTSTVYMELSSLRSEDTAVYYCARGGTGYYYGSGSRDGYHYYYGMDVWGQGTTVTVSS VL: EIVMTQSPATLSVSPGERATLSCRASQSVSSYLAWYQQKPGQAPRLLIYDASNRATGIPARFSGSGSGTDFTLTISSLEPEDLAVYYCQQSANWPPTFGGGTKVEIK
–	–	binds	BIIB-9-3595 (antibody, V domains shown) VH: EVQLVESGGGLVKPGGSLRLSCAASGFTFSSYSMNWVRQAPGKGLEWVSSISSSSSYIYYADSVKGRFTISRDNAKNSLYLQMNSLRAEDTAVYYCARDLGGYAGYYGMDVWGQGTTVTVSS VL: not shown
–	–	binds	BIIB-9-3621 (antibody, V domains shown) VH: EVQLVESGGGLVKPGGSLRLSCAASGFTFGSYSMAWVRQAPGKGLEWVSGISSSSGYIYYADSVKGRFTISRDNAKNSLYLQMNSLRAEDTAVYYCARDVGGYAGYYGMDVWGQGTTVTVSS VL: not shown
–	–	binds	BIIB-9-3647 (antibody, V domains shown) VH: EVQLVESGGGLVKPGGSLRLSCAASGFTFSSYGMVWVRQAPGKGLEWVSSISSASSYIYYADSVKGRFTISRDNAKNSLYLQMNSLRAEDTAVYYCARDVGGYAGYYGMDVWGQGTTVTVSS VL: not shown
–	–	binds	BIIB-9-3649 (antibody, V domains shown) VH: EVQLVESGGGLVKPGGSLRLSCAASGFTFSSYGMAWVRQAPGKGLEWVSGISSSSSYIYYADSVKGRFTISRDNAKNSLYLQMNSLRAEDTAVYYCARDVGGYAGYYGMDVWGQGTTVTVSS VL: not shown
–	–	binds	BIIB-9-3617 (antibody, V domains shown) VH: EVQLVESGGGLVKPGGSLRLSCAASGFTFSSYSMTWVRQAPGKGLEWVSSISSSGTYIYYADSVKGRFTISRDNAKNSLYLQMNSLRAEDTAVYYCARDVGGYAGYYGMDVWGQGTTVTVSS VL: not shown
–	–	binds	BIIB-9-3650 (antibody, V domains shown) VH: EVQLVESGGGLVQPGGSLRLSCAASGFTFGSYEMNWVRQAPGKGLEWVSAISASSSTIYYADSVKGRFTISRDNAKNSLYLQMNSLRAEDTAVYYCARDVGGYAGYYGMDVWGQGTTVTVSS VL: not shown
–	–	binds	BIIB-9-3604 (antibody, V domains shown) VH: EVQLVESGGGLVKPGGSLRLSCAASGFTFSSYDMVWVRQAPGKGLEWVSSISSGDSYIYYADSVKGRFTISRDNAKNSLYLQMNSLRAEDTAVYYCARDVGGYAGYYGMDVWGQGTTVTVSS VL: not shown
–	–	binds	BIIB-9-3601 (antibody, V domains shown) VH: EVQLVESGGGLVKPGGSLRLSCAASGFTFSSFSMNWVRQAPGKGLEWVSSISSAGSYIYYADSVKGRFTISRDNAKNSLYLQMNSLRAEDTAVYYCARDVGGYAGYYGMDVWGQGTTVTVSS VL: not shown
–	–	binds	BIIB-9-3618 (antibody, V domains shown) VH: EVQLVESGGGLVKPGGSMRLSCAASGFTFSSYEMVWVRQAPGKGLEWVSYISSGSSYIYYADSVKGRFTISRDNAKNSLYLQMNSLRAEDTAVYYCARDVGGYAGYYGMDVWGQGTTVTVSS VL: not shown
binds	binds	–	BIIB-9-1287 (antibody, V domains shown, IgG) VH: QLQLQESGPGLVKPSETLSLTCTVSGGSISSSDYYWGWIRQPPGKGLEWIGSIYYSGSTYYNPSLKSRVTISVDTSKNQFSLKLSSVTAADTAVYYCARSPRHKVRGPNWFDPWGQGTLVTVSS VL: EIVLTQSPGTLSLSPGERATLSCRASQSVSSSYLAWYQQKPGQAPRLLIYGASSRATGIPDRFSGSGSGTDFTLTISRLEPEDFAVYYCQQYHLHPTFGGGTKVEIK
binds	binds	–	BIIB-9-1281 (antibody, V domains shown, IgG) VH: QVQLQQWGAGLLKPSETLSLTCAVYGGSFSGYYWSWIRQPPGKGLEWIGEIDHSGSTNYNPSLKSRVTISVDTSKNQFSLKLSSVTAADTAVYYCARTTRSKYYGMDVWGQGTMVTVSS VL: DIQMTQSPSTLSASVGDRVTITCRASQSISSWLAWYQQKPGKAPKLLIYKASSLESGVPSRFSGSGSGTDFTLTISSLQPEDFATYYCQQAISLPITFGGGTKVEIK
